The test system of assay [1] is Plus3 domain of Rtf1. The note with it: phosphorylated CTR peptide; pdb 4L1U; ref Wier et al. 2013; cited from earlier work.
Assay [2] has as its target T1, Pct1 (Schizosaccharomyces pombe, UniProt Q9P6Q6).
T1 sequence (Q9P6Q6 1-303): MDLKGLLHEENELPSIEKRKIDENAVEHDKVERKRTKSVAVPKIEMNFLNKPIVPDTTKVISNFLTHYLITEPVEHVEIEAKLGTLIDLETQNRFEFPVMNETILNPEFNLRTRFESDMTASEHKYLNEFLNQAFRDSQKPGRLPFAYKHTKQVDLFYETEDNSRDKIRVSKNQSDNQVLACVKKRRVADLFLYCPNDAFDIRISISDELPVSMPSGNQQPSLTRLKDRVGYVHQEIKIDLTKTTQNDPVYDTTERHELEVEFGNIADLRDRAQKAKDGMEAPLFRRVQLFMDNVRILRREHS
The class given is binding, S. pombe. Particulars: 180-fold higher than Kd for Spt5-(801–898).

For assay [3], the system named is S. pombe RNA triphosphatase Pct1. Particulars: ref Pei et al. 2001b; cited from earlier work.
Assay [4] has as its target T2, S. pombe RNA triphosphatase Pct1 (wild type) (S. pombe, UniProt Q9P6Q6 1-303).
T2 sequence (looked up): T1 sequence (Q9P6Q6 1-303)
The experiment in a line: fluorescence polarisation. On the technique in general: In fluorescence polarisation assays a small probe gives low polarisation when free and higher when bound to something large.

Assay [5] deals with T2, S. pombe RNA triphosphatase Pct1 (wild …). The experiment in a line: crystal structure.
Assay [6] has as its target T3, S. pombe RNA triphosphatase Pct1 M100R (S. pombe, UniProt Q9P6Q6 1-303, M100R).
T3 sequence (looked up): T1 sequence (Q9P6Q6 1-303) with M100R
In words: fluorescence polarisation.

Assay [7] addresses T2, S. pombe RNA triphosphatase Pct1 (wild …). In words: fluorescence polarisation. This is another data set of the same source.
The target of assay [8] is T4, S. pombe RNA triphosphatase Pct1 M100A (S. pombe, UniProt Q9P6Q6 1-303, M100A).
T4 sequence (looked up): T1 sequence (Q9P6Q6 1-303) with M100A
In words: fluorescence polarisation.

Assay [9] deals with T5, Pct1 M100A (Schizosaccharomyces pombe, UniProt Q9P6Q6, M100A).
T5 sequence (Q9P6Q6 1-303 M100A): T1 sequence (Q9P6Q6 1-303) with M100A
The experiment in a line: Fluorescence polarization binding of Spt5-. On the set-up: species or system S. pombe. The note with it: Pct1 M100A versus wild-type Pct1.

The target of assay [10] is T2, S. pombe RNA triphosphatase Pct1 (wild …). The experiment in a line: fluorescence polarisation. The source holds these as a separate data set.

Positions count from the first letter of the chain named. Read-outs that look alike come from different tables or passages of the source. Where no end group is shown, it is not given here. fluorescein = fluorescein label

On to SGSRTPPMYGSQ, for which, in [1], the “binding to Rtf1 Plus3 domain in crystal” value is given as “bound”.
For the molecule SGSKTPAWNSGSKTPAWNSGSK, the “Kd relative to the Kd of Pct1 for the longer Spt5-(801–898) ligand” value in [2] is given as 180 fold.
In the case of `O=P(O)(O)OP(=O)(O)OP(=O)(O)O` [tripolyphosphate], in [3], the competitive inhibition entry is on record as “high-affinity competitive inhibitor”.

B1: unphosphorylated 22-amino acid synthetic Spt5 CTD peptide SGSKTPAWNSGSKTPAWNSGSK (untagged) (peptide)
peptide: SGSKTPAWNSGSKTPAWNSGSK
Regarding B1, in assay [4], the Ki (commonly the equilibrium dissociation constant of an inhibitor or competing ligand from its target) stood at 79 ± 9 µM.

B2: 18-mer Spt5-CTD peptide TPAWNSGSRTPAWNSGSK, Spt5-(845-862) (peptide)
peptide: TPAWNSGSRTPAWNSGSK
B2: the “stoichiometry N” value in [5] was 2 peptides per Pct1 homodimer.

B3: BODIPY-FL-N(Cys)-Spt5-(801-898) (domain or fragment, S. pombe)
chain: CISTADGPNVPNWAQGARTPAVANGSRTPAWNTGSRTPAWNSGSKTPAWNSGSRTPAWNSGNKTPAWNAGSRTPAWNSGNKTPAWNVGNKTPAWNSGAK
modifications: BODIPY-FL at the N-terminus via maleimide chemistry (on the added N-terminal cysteine)
Turning to B3, the Kd (commonly the free concentration of one partner at which half of the binding sites on the other are occupied at equilibrium, for simple one-to-one binding) came out at 21.4 ± 2.4 µM in assay [6], 0.68 ± 0.1 µM in assay [7] and 1.4 ± 0.15 µM in assay [8].

B4: Spt5-(801–898): purified recombinant Spt5-(801–898) protein, comprising 10 nonamer repeats, labeled at the N-terminus with BODIPY-FL (protein)
chain: B3 chain
modifications: BODIPY-FL at the N-terminus via maleimide chemistry (on the added N-terminal cysteine)
B4: the “effect of M100A on Spt5 CTD binding” value in assay [9] was “twofold”.

B5: fluorescein-labeled 22-amino acid synthetic Spt5 CTD peptide SGSKTPAWNSGSKTPAWNSGSK (peptide)
peptide: fluorescein-SGSKTPAWNSGSKTPAWNSGSK
Consider B5, for which the Kd in [10] came out at 124 ± 10 µM.

The values are drawn from paper PMC4274631 (RNA, 2015).
